Substitutions are numbered along the chain they refer to.
T1: mouse SIRPα D1-Fc (mouse, UniProt P97797 32-150, limits assumed)
T1 construct: domain: D1
T1 sequence (looked up): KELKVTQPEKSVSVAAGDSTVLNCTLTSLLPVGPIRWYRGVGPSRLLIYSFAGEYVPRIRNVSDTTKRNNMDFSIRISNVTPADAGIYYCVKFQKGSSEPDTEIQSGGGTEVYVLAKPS

T2: mouse SIRPβ1 on CHO cells (mouse)
T2 construct: Whole entry
T2 chain: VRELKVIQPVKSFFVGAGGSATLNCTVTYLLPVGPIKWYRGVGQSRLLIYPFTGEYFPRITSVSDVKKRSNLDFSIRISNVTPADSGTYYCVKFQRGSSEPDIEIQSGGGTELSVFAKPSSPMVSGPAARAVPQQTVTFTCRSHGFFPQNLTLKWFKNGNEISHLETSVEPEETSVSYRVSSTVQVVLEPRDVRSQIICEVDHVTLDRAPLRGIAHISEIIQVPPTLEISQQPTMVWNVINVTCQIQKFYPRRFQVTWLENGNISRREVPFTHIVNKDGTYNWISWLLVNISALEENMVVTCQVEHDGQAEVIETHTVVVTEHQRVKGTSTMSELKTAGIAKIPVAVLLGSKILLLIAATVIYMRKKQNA

T3: mouse SIRPα on cells (mouse, UniProt P97797 32-513)
T3 construct: whole, on cells
T3 sequence (looked up): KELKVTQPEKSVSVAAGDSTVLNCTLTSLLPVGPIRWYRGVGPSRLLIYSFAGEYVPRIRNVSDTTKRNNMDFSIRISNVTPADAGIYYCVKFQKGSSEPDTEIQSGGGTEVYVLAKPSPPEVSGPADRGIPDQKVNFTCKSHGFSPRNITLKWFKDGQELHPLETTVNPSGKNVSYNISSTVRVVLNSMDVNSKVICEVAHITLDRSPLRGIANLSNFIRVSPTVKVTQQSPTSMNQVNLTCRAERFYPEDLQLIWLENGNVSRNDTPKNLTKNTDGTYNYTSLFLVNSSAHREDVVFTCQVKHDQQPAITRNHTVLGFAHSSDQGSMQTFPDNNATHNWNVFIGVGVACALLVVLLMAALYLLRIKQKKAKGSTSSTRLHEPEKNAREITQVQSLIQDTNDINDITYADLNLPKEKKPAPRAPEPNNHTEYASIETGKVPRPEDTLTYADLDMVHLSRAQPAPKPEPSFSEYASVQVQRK

B1: SB-6 (antibody, V domains shown)
VH: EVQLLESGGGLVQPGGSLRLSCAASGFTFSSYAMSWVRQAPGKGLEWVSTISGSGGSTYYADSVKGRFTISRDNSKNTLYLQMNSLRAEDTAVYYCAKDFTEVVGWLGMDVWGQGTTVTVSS
VL: EIVLTQSPGTLSLSPGERATLSCRASQSVSSSYLAWYQQKPGQAPRLLIYGASSRATGIPDRFSGSGSGTDFTLTISRLEPEDFAVYYCQQSGHLPITFGGGTKVEIK
notes: IgG
B2: SB-30 (antibody, V domains shown)
VH: QVQLQESGPGLVKPSQTLSLTCTVSGGSISSGGYYWSWIRQHPGKGLEWIGYIYYSGSTVYNPSLKSRVTISVDTSKNQFSLKLSSVTAADTAVYYCAREGPGYPSYFDPWGQGTLVTVSS
VL: B1 VL with Y33F, S92F, G93L, H94S, L95S, I97W, I107N, K108Q
notes: IgG
B3: SB-32 (antibody, V domains shown)
VH: QVQLQESGPGLVKPSETLSLTCTVSGGSISSYYWSWIRQPPGKGLEWIGYIYSSGSTNYNPSLKSRVTISVDTSKNQFSLKLSSVTAADTAVYYCARGDSSSGGLDLWGRGTLVTVSS
VL: not shown
notes: IgG
B4: SB-41 (antibody, V domains shown)
VH: QLQLQESGPGLVKPSETLSLTCTVSGGSISSSSYYWGWIRQPPGKGLEWIGSIYYSGSTYYNPSLKSRVTISVDTSKNQFSLKLSSVTAADTAVYYCARVGQYPIYGMDVWGQGTTVTVSS
VL: DIQMTQSPSSLSASVGDRVTITCQASQDITNYLNWYQQKPGKAPKLLIYDASNLETGVPSRFSGSGSGTDFTFTISSLQPEDIATYYCQQADNFPYTFGGGTKVEIK
notes: IgG
B5: SB-49 (antibody, V domains shown)
VH: QLQLQESGPGLVKPSETLSLTCTVSGGSISSSDYYWGWIRQPPGKGLEWIGSIYYSGSTYYNPSLKSRVTISVDTSKNQFSLKLSSVTAADTAVYYCARGPTGYKDKWRYYYGMDVWGQGTTVTVSS
VL: B4 VL with A91Y, D92F, N93H, F94P, Y96L
notes: IgG
B6: SB-39 (antibody, V domains shown)
VH: QVQLQESGPGLVKPSETLSLTCAVSGYSISSGYYWAWIRQPPGKGLEWIGSIYHSGSTYYNPSLKSRVTISVDTSKNQFSLKLSSVTAADTAVYYCARGGSNYGDYGRFDYWGQGTLVTVSS
VL: DIQMTQSPSSLSASVGDRVTITCRASQSISSYLNWYQQKPGKAPKLLIYGASSLQSGVPSRFSGSGSGTDFTLTISSLQPEDFATYYCQQSYDFPLTFGGGTKVEIK
notes: IgG
B7: SB-13 (antibody, V domains shown)
VH: QVQLQESGPGLVKPSETLSLTCTVSGGSISSYYWSWIRQPPGKGLEWIGSIYYSGSTNYNPSLKSRVTISVDTSKNQFSLKLSSVTAADTAVYYCARGDTSGGAYFDLWGRGTLVTVSS
VL: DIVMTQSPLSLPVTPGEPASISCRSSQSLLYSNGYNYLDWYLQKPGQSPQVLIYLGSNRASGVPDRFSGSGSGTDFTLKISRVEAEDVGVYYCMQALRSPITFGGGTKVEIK
notes: IgG
B8: SB-10 (antibody, V domains shown)
VH: QVQLVQSGAEVKKPGSSVKVSCKASGGTFSSYAISWVRQAPGQGLEWMGGIIPIFGTANYAQKFQGRVTITADESTSTAYMELSSLRSEDTAVYYCARGVPRGDLGMDVWGQGTTVTVSS
VL: not shown
notes: IgG
B9: SB-5 (antibody, V domains shown)
VH: not shown
VL: EIVLTQSPATLSLSPGERATITCRASQSVSSYLAWYQQKPGQAPRLLIYDASNRATGIPARFSGSGSGTDFTLTISSLEPEDFAVYYCQQRLFHPPTFGGGTKVEIK
notes: IgG
B10: SB-14 (antibody, V domains shown)
VH: QVQLVQSGAEVKKPGSSVKVSCKASGGTFSSYAISWVRQAPGQGLEWMGGIIPIFGTASYAQKFQGRVTITADESTSTAYMELSSLRSEDTAVYYCARDRGGVGFDYWGQGTLVTVSS
VL: B9 VL with L4M, I21L, T22S, A51S, R91F, L92S, F93Y, H94Y, P96I
notes: IgG
B11: SB-15 (antibody, V domains shown)
VH: QLQLQESGPGLVKPSETLSLTCTVSGGSISSNSYYWGWIRQPPGKGLEWIGSIYYSGSTYYNPSLKSRVTISVDTSKNQFSLKLSSVTAADTAVYYCAREVGAPPSYPFDIWGQGTMVTVSS
VL: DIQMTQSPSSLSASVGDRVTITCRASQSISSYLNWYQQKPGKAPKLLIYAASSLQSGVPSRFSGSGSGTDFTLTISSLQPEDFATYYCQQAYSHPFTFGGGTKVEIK
notes: IgG

Key:
[1] = molecular target: T4, human SIRPα domain 1 (D1) Fc fusion (human, UniProt P78324 32-149); assay: Octet
T4 construct: also called human SIRPα D1-Fc; Human SIRPα Fc; not shown: C-terminal human IgG1 Fc

[2] = molecular target: T1, mouse SIRPα D1-Fc; assay: Octet
Method: Briefly, Octet affinity measurements were performed by loading IgGs on-line onto AHQ sensors. Sensors were equilibrated off-line in assay buffer for 30 min and then monitored on-line for 60 seconds for baseline establishment. For avid binding measurement, sensors with loaded IgGs were exposed to 100 nM antigen (human SIRPα domain 1 (D1) Fc fusion or SIRPβ1 domain 1 (D1) Fc fusion) for 3 min, and then transferred to assay buffer for 3 min for off-rate measurement. Additional avid binding was determined by loading biotinylated SIRPβ1 monomer on SA sensors and exposing to 100 nM IgG in solution. Monovalent binding measurements were obtained by loading human SIRPα- or SIRPβ1-Fc fusion antigens onto AHQ sensor, followed by exposure to 100 nM anti-SIRPβ1 antibody Fab. Additional monovalent measurements were made by loading biotinylated human SIRPα or SIRPβ1 monomer to SA sensor followed by exposure to 100 nM Fab in solution. Kinetics data were fit using a 1:1 binding model in the data analysis software provided by ForteBio (ForteBio Data Analysis Software 7.0).

[3] = molecular target: T5, human SIRPα on cells (human, UniProt P78324 31-504); assay: flow cytometry;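 as to FOB: antibodies tested at 1 µg/ml for 30 min on ice against receptor-expressing cells, detected with a PE-labelled secondary antibody, read as mean fluorescence intensity relative to background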
T5 construct: Whole entry

[4] = molecular target: T2, mouse SIRPβ1 on CHO cells; assay: flow cytometry;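 as to FOB: antibodies tested at 1 µg/ml for 30 min on ice against receptor-expressing cells, detected with a PE-labelled secondary antibody, read as mean fluorescence intensity relative to background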
[5] = molecular target: T3, mouse SIRPα on cells; assay: flow cytometry;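 as to FOB: antibodies tested at 1 µg/ml for 30 min on ice against receptor-expressing cells, detected with a PE-labelled secondary antibody, read as mean fluorescence intensity relative to background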
[6] = molecular target: T6, human SIRPβ1 isoform 1 on cells (human, UniProt O00241 30-398); assay: flow cytometry;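 also: antibodies tested at 1 µg/ml for 30 min on ice against receptor-expressing cells, detected with a PE-labelled secondary antibody, read as mean fluorescence intensity relative to background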
T6 construct: On CHO cells (low level), on BWZ/BW5147.G.1.4 cells (reporter cells co-express human DAP12) or on primary human myeloid cells; also called huSIRPβ1; BWZ-huSIRPβ1
Method: (§1) Initial characterization of anti-SIRPβ1 antibodies involved determining their ability to bind cell lines expressing human or mouse SIRPβ1. Cells were harvested, plated at 10⁶/ml in a 96-well plate, washed, and incubated in 100 μl FACS buffer containing 1 μg/ml anti-SIRPβ1 antibody for 0.5 hour on ice. Cells were then washed twice and incubated in 100 μl FACS buffer containing 0.5 μg/ml PE-conjugated secondary antibody for 30 minutes on ice. Cells were washed twice in cold FACS buffer and acquired on a BD FACS Canto. Data analysis and calculation of mean fluorescence intensity (MFI) values or 00 positive cells was performed with FlowJo (TreeStar) software version 10.0.7.
(§2) As a negative control, the anti-SIRPβ1 antibodies were also screened for surface binding to CHO cells overexpressing recombinant mouse SIRPβ31. […] Given the high sequence similarity between receptors of the SIRPβ family, anti-SIRPβ1 antibodies were also screened for cross-reactivity to human and mouse SIRPα.

[7] = molecular target: T5, human SIRPα on cells; assay: flow cytometry; remark: listed apart in the source
Method: as §1, §2

[8] = molecular target: T2, mouse SIRPβ1 on CHO cells; assay: flow cytometry
Method: as §1, §2

[9] = molecular target: T3, mouse SIRPα on cells; assay: flow cytometry; remark: listed apart in the source
Method: as §1, §2

[10] = molecular target: T7, human SIRPβ1 domain 1 (D1) Fc fusion (human, UniProt O00241 30-148); assay: Octet, IgG avid
T7 construct: Made in HEK293/T cells with a heterologous signal peptide; also called Human SIRPβ1 D1-Fc; Human SIRPβ1-Fc; not shown: C-terminal human IgG1 Fc
T7 sequence (O00241 30-148 limits assumed): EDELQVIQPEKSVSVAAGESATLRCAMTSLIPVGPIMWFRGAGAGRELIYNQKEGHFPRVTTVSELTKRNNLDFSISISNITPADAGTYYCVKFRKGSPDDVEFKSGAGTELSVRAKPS

T6 sequence (O00241 30-398): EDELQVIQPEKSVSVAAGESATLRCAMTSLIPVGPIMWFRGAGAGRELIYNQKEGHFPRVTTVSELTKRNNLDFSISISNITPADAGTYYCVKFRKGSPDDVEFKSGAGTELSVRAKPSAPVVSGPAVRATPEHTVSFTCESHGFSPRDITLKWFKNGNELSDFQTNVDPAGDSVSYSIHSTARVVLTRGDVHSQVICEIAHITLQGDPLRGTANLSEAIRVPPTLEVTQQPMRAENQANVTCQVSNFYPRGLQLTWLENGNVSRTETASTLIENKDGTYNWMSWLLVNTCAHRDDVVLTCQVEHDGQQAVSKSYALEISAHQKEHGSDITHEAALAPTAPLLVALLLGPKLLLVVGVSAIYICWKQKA

Binder	binding result [1]	binding result [2]	binding result [3]	binding result [4]	binding result [5]	FOB [6] [fold over background]	FOB [7] [fold over background]	FOB [8] [fold over background]	FOB [9] [fold over background]	Kd [10] [nM]
B1	no binding (tested: 100 nM)	no binding (tested: 100 nM)	no binding (tested: 1 ug/ml)	no binding (tested: 1 ug/ml)	no binding (tested: 1 ug/ml)	4.3	1.2	1.2	1	1.3
B2	–	no binding (tested: 100 nM)	–	no binding (tested: 1 ug/ml)	no binding (tested: 1 ug/ml)	1.7	2.1	1.4	1.5	7.87
B3	–	no binding (tested: 100 nM)	–	no binding (tested: 1 ug/ml)	no binding (tested: 1 ug/ml)	1.5	2.2	1.2	1.2	7.13
B4	–	no binding (tested: 100 nM)	–	no binding (tested: 1 ug/ml)	no binding (tested: 1 ug/ml)	1.7	2.2	1.3	1.7	10.3
B5	–	no binding (tested: 100 nM)	–	no binding (tested: 1 ug/ml)	no binding (tested: 1 ug/ml)	3.4	2.7	1.2	1.7	4.39
B6	–	no binding (tested: 100 nM)	–	no binding (tested: 1 ug/ml)	no binding (tested: 1 ug/ml)	5	2	1.4	1.1	21.4
B7	no binding (tested: 100 nM)	no binding (tested: 100 nM)	no binding (tested: 1 ug/ml)	no binding (tested: 1 ug/ml)	no binding (tested: 1 ug/ml)	1.9	1.9	1.2	0.9	–
B8	no binding (tested: 100 nM)	no binding (tested: 100 nM)	no binding (tested: 1 ug/ml)	no binding (tested: 1 ug/ml)	no binding (tested: 1 ug/ml)	3.8	2.4	1.4	1	–
B9	no binding (tested: 100 nM)	no binding (tested: 100 nM)	no binding (tested: 1 ug/ml)	no binding (tested: 1 ug/ml)	no binding (tested: 1 ug/ml)	1.6	2	1.3	1.5	–
B10	no binding (tested: 100 nM)	no binding (tested: 100 nM)	no binding (tested: 1 ug/ml)	no binding (tested: 1 ug/ml)	no binding (tested: 1 ug/ml)	4.5	2.5	1.3	1.2	–
B11	no binding (tested: 100 nM)	no binding (tested: 100 nM)	no binding (tested: 1 ug/ml)	no binding (tested: 1 ug/ml)	no binding (tested: 1 ug/ml)	8	2.2	1.3	1.4	3.45
